Experiment [1] addresses T1, Nipah virus attachment (receptor-binding) glycoprotein (GP), wild type (Nipah virus; strain of the assayed …, UniProt Q9IH62).
T1 construct: source: HEK 293-F FreeStyle, transiently transfected, purified from supernatant (Ni-NTA)
Description: BLI. The following applies: both partners purified.

Experiment [2] addresses T1, Nipah virus attachment …. The experiment is described as follows: ELISA. The following applies: both partners purified. (An ELISA detects its analyte on a solid surface through an enzyme-linked reagent.)

B1: monoclonal antibody m102.4 (wild type) (antibody, V domains shown)
VH: EVQVIQSGADVKKPGSSVKVSCKSSGGTFSKYAINWVRQAPGQGLEWMGGIIPILGIANYAQKFQGRVTITTDESTSTAYMELSSLRSEDTAVYYCARGWGREQLAPHPSQYYYYYYGMDVWGQGTTVTVSS
VL: EIVMTQSPGTLSLAPGERATLSCWASQSVRNNYLAWYQQKPGQAPRLVIYNGSTRATGIPDRFSGSGSGTDFTLTISRLDPEDFAVYYCQQYGNSRRVTFGGGTKVEIK
notes: also called wild-type Nipah antibody; anti-Nipah mAb
In the case of B1, in experiment [1], the affinity, expressed as Kd, was 70 ± 10 pM; the koff was 4.53e-05 s⁻¹; the kon is 646000 M⁻¹ s⁻¹. The same molecule returned a Kd in experiment [2] of 120 pM.

For orientation: Kd means the constant that tells how readily two partners part at equilibrium. As a reminder, the koff is the rate constant with which the complex falls apart. A lower koff goes with slow dissociation. By kon is commonly meant the rate constant with which the complex forms. A higher kon goes with faster complex formation.

These data come from PMC7588459 (Scientific Reports, 2020).
